Experimental findings from PMC4451147 are described below.

The target in experiment [1] is Tubulin purified from lamb brains (sheep (purified from lamb brains)). The experiment in a line: ITC; stathmin (syringe, 50-200 uM) injected into tubulin (cell, 5-20 uM); no MTA; 37°C; 20 mM NaPi, 4 mM MgCl2, 0.1 mM GTP, pH 6.5; one set of sites model; apparent constants.
For experiment [2] the target is unchanged. The experiment in a line: ITC; stathmin (syringe) injected into tubulin (cell); vinflunine (10 uM) in cell and syringe; 37°C; 20 mM NaPi, 4 mM MgCl2, 0.1 mM GTP, pH 6.5; one set of sites model; apparent constants. In general terms: In ITC the heat of successive injections is recorded.

B1: Human recombinant stathmin (natural protein)
chain: MASSDIQVKELEKRASGQAFELILSPRSKESVPEFPLSPPKKKDLSLEEIQKKLEAAEERRKSHEAEVLKQLAEKREHEKEVLQKAIEENNNFSKMAEEKLTHKMEANKENREAQMAAKLERLREKDKHIEEVRKNKESKDPADETEAD
Take B1: in experiment [1], the Ka was 2.7e+06 M⁻¹ and the dH (kcal/mole of stathmin) is -7.5. Moreover, in experiment [2], the Ka came out at 7.8e+06 M⁻¹ and the dH (kcal/mole of stathmin) is -30.
